Positions count from the first letter of the chain named. Where two headings read alike, the source gives them in different places.

The values below come from patent US20240158510A1 (GOVERNING COUNCIL OF THE UNIVERSITY OF TORONTO, published 2024).

For assay [1], the target named is T1, integrin αvβ5 expressed on CHO cells (UniProt P06756 31-1048; P18084 24-799, limits assumed).
T1 construct: whole, on cells
Briefly: flow cytometry titration on AvB5 CHO cells. As to the method: (§1) Adherent cells were brought into suspension using PBS supplemented with 10 mM ethylenediaminetetraacetic acid (EDTA). The cells were washed with PBS, resuspended in PBS supplemented with 1% BSA, and incubated for 15 minutes at 4° C. The cells were labelled with 50 μl of Fab-phage culture supernatant, or 500 nM Fab, or IgG for 30 minutes at 4° C., then washed with PBS and resuspended in PBS supplemented with 1% BSA. Next, the cells were labelled with anti-Fab (for Fab-phage), or anti-Flag (for Fabs) or anti-Fc (for IgGs) conjugated Alexa-488 secondary Ab according to manufacturer's instructions. Data were collected using a CytoFLEX-S flow-cytometer using a 488-nm laser with 530/25 nm filter settings. The cells were analyzed in PBS, and all acquired live events were greater than 10,000 cells per sample. Quantitation analysis was carried out using FlowJo v10.2 Software. For Ab cellular titration analysis, the Abs were added to antigen positive cells in duplicate samples from a range of 500 pM to 1 μM. The mean fluorescence signal values were subtracted from the control antigen negative cells signals, and EC50 determined using Graph-pad Prism, where x is the Fab concentration: […]
(In general: In flow cytometry, cells or beads pass a laser one at a time.)

The target in assay [2] is T2, integrin αvβ8 expressed on CHO cells (UniProt P06756 31-1048; P26012 43-769, limits assumed). Briefly: cell-based or functional assay.
Assay [3] addresses T3, integrin αvβ6 expressed on CHO cells (UniProt P06756 31-1048; P18564 22-788, limits assumed). Briefly: cell-based or functional assay.
For assay [4], the target named is T4, integrin αvβ3 expressed on CHO cells (UniProt P06756 31-1048; P05106 27-788, limits assumed). Kind of assay: cell-based or functional assay.
Assay [5] concerns the target T1, integrin αvβ5 expressed on CHO cells. Briefly: cell-based or functional assay.
Assay [6] has as its target T5, integrin αvβ1 expressed on CHO cells (UniProt P06756 31-1048; P05556 21-798, limits assumed). Briefly: cell-based or functional assay.
The target in assay [7] is T5, integrin αvβ1 expressed on CHO cells. Kind of assay: cell-based or functional assay. This is another data set of the same source.
Assay [8] concerns the target T4, integrin αvβ3 expressed on CHO cells. Briefly: cell-based or functional assay. This is another data set of the same source.
In assay [9] the target is T5, integrin αvβ1 expressed on CHO cells. Kind of assay: cell-based or functional assay. The source holds these as a separate data set.
Assay [10] concerns the target T6, recombinant human integrin-αvβ1 (human, UniProt P06756 31-992; P05556 21-728, limits assumed).
T6 construct: also called Recombinant Human Integrins
Kind of assay: IgG titration on recombinant human integrin αvβ1, one site-total fit; assay format not stated. The arrangement: Bmax: unit not given here.

Assay [11] addresses T4, integrin αvβ3 expressed on CHO cells. Kind of assay: flow cytometry titration on AvB3 CHO cells. As to the method: as §1
Assay [12] addresses T2, integrin αvβ8 expressed on CHO cells. Kind of assay: flow cytometry titration on AvB8 CHO cells. The method, then: as §1
Assay [13] shares this target. Briefly: flow cytometry titration on integrin-expressing CHO cells. The method, then:
as §1

The target of assay [14] is T3, integrin αvβ6 expressed on CHO cells. Described as above. As to the method: as §1
The target of assay [15] is T4, integrin αvβ3 expressed on CHO cells. The description is as above. The method, then:
as §1

In assay [16] the target is T1, integrin αvβ5 expressed on CHO cells. The assay is described as above. As to the method:
as §1

Assay [17] concerns the target T5, integrin αvβ1 expressed on CHO cells. The description is as above. The method, then:
as §1

The target in assay [18] is T3, integrin αvβ6 expressed on CHO cells. Briefly: flow cytometry titration on AvB6 CHO cells. As to the method:
as §1

The target of assay [19] is T5, integrin αvβ1 expressed on CHO cells. Kind of assay: flow cytometry titration on AvB1 CHO cells. The method, then:
as §1

In assay [20] the target is T7, recombinant mouse integrin-αvβ1 (mouse, UniProt P43406 31-988; P09055 21-728, limits assumed).
T7 construct: also called Recombinant Mouse Integrins
Kind of assay: IgG titration on recombinant mouse integrin αvβ1, one site-total fit; assay format not stated.

The target in assay [21] is T2, integrin αvβ8 expressed on CHO cells. Briefly: cell-based or functional assay. The source holds these as a separate data set.
The target of assay [22] is T1, integrin αvβ5 expressed on CHO cells. Kind of assay: cell-based or functional assay. The source holds these as a separate data set.

T1 sequence (P06756 31-1048 limits assumed, chain 1 of 2): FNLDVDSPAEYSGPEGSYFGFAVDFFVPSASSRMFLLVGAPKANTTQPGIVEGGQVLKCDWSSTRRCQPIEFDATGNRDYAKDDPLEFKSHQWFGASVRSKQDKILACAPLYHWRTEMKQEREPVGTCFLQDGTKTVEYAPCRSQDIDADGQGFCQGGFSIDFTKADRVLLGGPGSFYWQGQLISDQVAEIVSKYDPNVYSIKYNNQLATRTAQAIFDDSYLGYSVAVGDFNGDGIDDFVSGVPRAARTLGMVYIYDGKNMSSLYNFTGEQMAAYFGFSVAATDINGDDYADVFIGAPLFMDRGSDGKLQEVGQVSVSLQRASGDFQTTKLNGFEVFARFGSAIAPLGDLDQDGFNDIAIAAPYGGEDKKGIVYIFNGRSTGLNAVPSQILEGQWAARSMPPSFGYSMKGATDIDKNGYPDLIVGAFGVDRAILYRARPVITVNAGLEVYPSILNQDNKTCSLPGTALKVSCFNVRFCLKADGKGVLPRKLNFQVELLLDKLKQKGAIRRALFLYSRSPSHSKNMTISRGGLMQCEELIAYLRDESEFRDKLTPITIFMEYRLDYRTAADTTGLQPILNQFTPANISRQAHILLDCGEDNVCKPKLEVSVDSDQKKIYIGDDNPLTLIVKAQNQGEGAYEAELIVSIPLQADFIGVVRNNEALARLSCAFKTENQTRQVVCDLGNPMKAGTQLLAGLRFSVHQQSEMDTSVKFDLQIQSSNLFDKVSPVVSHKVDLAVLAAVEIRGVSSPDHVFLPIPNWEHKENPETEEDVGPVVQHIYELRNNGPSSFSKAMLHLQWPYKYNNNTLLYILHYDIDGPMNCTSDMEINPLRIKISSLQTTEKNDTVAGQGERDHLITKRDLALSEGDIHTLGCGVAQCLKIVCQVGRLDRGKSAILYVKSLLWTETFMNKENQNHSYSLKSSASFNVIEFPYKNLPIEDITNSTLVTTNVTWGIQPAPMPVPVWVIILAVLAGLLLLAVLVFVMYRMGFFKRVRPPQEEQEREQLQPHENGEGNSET
T1 sequence (P18084 24-799 limits assumed, chain 2 of 2): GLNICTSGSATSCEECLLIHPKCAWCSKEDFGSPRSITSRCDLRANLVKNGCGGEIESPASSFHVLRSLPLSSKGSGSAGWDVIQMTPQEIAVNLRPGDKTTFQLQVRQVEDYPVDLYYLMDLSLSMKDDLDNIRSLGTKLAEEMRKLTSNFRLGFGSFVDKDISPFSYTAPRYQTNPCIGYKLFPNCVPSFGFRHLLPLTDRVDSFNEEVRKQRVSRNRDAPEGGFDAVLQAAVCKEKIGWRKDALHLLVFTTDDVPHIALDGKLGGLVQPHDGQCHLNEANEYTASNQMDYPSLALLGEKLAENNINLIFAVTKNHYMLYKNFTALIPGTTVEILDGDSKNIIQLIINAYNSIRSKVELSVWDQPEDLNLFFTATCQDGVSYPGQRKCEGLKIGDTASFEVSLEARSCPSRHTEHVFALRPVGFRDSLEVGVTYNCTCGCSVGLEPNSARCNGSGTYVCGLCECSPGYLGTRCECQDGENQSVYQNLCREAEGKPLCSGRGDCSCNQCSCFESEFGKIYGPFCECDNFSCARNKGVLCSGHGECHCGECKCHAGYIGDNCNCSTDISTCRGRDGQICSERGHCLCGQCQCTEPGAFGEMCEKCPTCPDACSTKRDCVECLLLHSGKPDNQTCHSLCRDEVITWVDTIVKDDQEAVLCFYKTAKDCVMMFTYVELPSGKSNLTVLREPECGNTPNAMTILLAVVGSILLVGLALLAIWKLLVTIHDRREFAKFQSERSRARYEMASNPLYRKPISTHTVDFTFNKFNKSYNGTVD
T5 sequence (P06756 31-1048 limits assumed, chain 1 of 2): as the sequence (P06756 31-1048 limits assumed, chain 1 of 2) above
T5 sequence (P05556 21-798 limits assumed, chain 2 of 2): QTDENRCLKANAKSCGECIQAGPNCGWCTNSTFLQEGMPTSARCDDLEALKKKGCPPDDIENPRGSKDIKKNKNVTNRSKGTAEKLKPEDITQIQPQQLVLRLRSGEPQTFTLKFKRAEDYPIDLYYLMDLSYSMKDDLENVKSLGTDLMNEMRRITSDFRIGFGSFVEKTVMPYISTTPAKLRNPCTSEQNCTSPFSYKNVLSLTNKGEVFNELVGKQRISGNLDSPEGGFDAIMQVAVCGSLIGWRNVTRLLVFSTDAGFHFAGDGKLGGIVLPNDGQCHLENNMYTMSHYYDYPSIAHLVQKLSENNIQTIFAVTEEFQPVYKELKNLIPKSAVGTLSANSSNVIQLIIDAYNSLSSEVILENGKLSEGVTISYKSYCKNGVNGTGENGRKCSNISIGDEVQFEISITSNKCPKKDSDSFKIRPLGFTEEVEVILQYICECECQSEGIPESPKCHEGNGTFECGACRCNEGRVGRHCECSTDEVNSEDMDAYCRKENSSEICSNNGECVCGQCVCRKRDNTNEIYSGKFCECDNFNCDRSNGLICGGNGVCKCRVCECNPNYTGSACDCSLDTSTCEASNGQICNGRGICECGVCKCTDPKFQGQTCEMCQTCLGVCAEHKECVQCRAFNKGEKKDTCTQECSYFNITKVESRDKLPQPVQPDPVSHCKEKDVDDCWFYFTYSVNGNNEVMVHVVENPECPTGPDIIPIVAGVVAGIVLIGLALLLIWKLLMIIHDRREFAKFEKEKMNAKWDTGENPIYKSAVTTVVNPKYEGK
T2 sequence (P06756 31-1048 limits assumed, chain 1 of 2): as the sequence (P06756 31-1048 limits assumed, chain 1 of 2) above
T2 sequence (P26012 43-769 limits assumed, chain 2 of 2): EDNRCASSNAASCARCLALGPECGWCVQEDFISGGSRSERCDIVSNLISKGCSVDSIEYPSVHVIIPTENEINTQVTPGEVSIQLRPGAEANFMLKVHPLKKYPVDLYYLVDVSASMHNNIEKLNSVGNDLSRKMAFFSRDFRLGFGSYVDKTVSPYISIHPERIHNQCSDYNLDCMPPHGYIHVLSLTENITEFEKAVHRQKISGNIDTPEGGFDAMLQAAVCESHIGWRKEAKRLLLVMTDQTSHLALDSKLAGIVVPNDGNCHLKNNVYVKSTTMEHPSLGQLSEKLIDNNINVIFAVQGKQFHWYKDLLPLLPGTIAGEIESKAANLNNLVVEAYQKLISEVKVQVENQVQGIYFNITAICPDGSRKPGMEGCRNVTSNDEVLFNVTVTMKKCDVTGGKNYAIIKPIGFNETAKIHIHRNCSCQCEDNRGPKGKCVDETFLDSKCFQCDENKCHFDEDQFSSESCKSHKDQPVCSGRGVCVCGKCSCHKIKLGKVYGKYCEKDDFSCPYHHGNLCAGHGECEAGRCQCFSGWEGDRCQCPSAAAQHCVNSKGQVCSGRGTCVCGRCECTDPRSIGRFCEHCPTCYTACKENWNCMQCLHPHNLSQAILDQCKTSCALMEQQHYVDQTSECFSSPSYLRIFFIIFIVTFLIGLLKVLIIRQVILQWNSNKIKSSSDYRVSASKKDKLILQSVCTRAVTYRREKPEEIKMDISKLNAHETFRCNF
T4 sequence (P06756 31-1048 limits assumed, chain 1 of 2): as the sequence (P06756 31-1048 limits assumed, chain 1 of 2) above
T4 sequence (P05106 27-788 limits assumed, chain 2 of 2): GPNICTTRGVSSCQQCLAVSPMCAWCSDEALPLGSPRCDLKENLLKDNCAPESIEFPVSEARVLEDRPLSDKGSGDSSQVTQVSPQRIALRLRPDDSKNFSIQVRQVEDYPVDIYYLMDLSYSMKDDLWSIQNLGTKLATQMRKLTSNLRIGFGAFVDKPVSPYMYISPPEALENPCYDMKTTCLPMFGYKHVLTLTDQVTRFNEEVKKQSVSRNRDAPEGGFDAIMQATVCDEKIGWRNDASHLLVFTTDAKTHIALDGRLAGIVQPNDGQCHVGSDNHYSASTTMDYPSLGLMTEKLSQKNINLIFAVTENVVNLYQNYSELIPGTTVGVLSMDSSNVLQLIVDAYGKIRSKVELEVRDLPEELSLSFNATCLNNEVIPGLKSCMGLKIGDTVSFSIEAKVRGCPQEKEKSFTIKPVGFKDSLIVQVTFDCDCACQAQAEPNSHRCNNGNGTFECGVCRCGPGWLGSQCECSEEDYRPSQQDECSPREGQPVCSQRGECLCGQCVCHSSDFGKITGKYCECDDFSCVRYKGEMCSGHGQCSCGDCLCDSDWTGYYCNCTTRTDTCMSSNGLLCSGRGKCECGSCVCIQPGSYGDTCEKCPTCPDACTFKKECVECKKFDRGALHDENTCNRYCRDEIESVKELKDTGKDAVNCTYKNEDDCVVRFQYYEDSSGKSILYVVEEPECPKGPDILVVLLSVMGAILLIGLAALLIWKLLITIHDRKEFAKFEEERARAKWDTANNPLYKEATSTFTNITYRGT
T3 sequence (P06756 31-1048 limits assumed, chain 1 of 2): as the sequence (P06756 31-1048 limits assumed, chain 1 of 2) above
T3 sequence (P18564 22-788 limits assumed, chain 2 of 2): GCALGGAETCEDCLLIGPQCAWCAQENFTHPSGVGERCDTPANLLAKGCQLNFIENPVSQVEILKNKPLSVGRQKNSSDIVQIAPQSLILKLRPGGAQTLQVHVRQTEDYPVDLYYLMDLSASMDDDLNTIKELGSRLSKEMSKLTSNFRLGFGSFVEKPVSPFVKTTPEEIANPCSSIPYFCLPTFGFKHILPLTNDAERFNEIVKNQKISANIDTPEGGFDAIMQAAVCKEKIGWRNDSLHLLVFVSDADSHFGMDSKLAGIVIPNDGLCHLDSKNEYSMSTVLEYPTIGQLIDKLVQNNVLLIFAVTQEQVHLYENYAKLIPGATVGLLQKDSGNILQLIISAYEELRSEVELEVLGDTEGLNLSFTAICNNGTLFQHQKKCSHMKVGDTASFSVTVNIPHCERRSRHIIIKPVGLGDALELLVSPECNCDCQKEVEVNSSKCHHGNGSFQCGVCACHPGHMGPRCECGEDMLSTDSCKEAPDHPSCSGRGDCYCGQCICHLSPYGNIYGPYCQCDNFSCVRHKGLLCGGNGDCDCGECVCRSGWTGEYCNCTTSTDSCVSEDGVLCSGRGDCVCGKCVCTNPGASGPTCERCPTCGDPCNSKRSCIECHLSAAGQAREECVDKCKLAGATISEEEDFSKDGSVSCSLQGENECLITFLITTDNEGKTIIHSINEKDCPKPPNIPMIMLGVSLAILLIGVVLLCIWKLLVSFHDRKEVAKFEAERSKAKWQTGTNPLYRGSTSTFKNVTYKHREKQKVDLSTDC

B1: IgG clone 10392, hG1/hk (pSCSTa-hG1 (10392) heavy chain, pSCSTa-hK (10392) light chain) (antibody, V domains shown)
VH: EVQLVESGGGLVQPGGSLRLSCAASGFNIYYSSIHWVRQAPGKGLEWVASISSSSGSTSTYADSVKGRFTISADTSKNTAYLQMNSLRAEDTAVYYCARSYYGGGYPYALDYWGQGTLVTVSS
VL: DIQMTQSPSSLSASVGDRVTITCRASQSVSSAVAWYQQKPGKAPKLLIYSASSLYSGVPSRFSGSRSGTDFTLTISSLQPEDFATYYCQQYFGGLITFGQGTKVEIKR
notes: Full-length human IgG1/kappa made in Expi293 cells
In the case of B1, the half-maximal effective concentration (EC50) (in general, the concentration needed to bring the measured effect to its halfway point) in assay [1] was found to be 1.3 nM; in assay [11], 9.9 nM; in [12], 11.6 nM; in assay [13], 11.4 nM; in assay [14], 3.26 nM; in assay [15], 14.8 nM. Besides, the EC50 in [16] came to 3.4 nM; in assay [17], 2.72 nM; in [18], 3.7 nM; in assay [19] it was 3 nM. The “IC50, inhibition of CHO cell adhesion to LAP-TGFβ” value (“IC50, inhibition” below) in assay [2] turned out to be 1.3 nM; in assay [3], 1.4 nM; in assay [4] it was 1.2 nM; in assay [5], 0.7 nM; in assay [6], 5 nM; in [8], 45 nM. In addition, the “IC50, inhibition” value in [9] is less than 1 nM. Moreover, the “adhesion of integrin-αvβ1 CHO cells to LAP-TGFβ, normalised confluence, number over the bar, untreated = 100” value in assay [7] was 61.2%. Moreover, the Bmax in assay [10] and in assay [20] was 0.412 throughout. For the same molecule, the Kd in [10] and in assay [20] was 0.421 nM each time.

B2: IgG clone 10404, hG1/hk (pSCSTa-hG1 (10404) heavy chain, pSCSTa-hK (10404) light chain) (antibody, V domains shown)
VH: EVQLVESGGGLVQPGGSLRLSCAASGFNLYSSSIHWVRQAPGKGLEWVAYIYPSYGYTSTYADSVKGRFTISADTSKNTAYLQMNSLRAEDTAVYYCARPAPYYSWYPAMDYWGQGTLVTVSS
VL: B1 VL with Y91A, F92S, G94S, L95P, I96F
notes: as for B1
With B2, the “adhesion of integrin-αvβ1 CHO cells to LAP-TGFβ, normalised confluence, number over the bar, untreated = 100” value in assay [7] was found to be 46.2%. Besides, the “IC50, inhibition” value in assay [21] is less than 1 nM; in assay [8], 23.8 nM; in [22], 3.64 nM; in assay [9] it was 13.2 nM. Moreover, the Bmax in assay [10] and in [20] was 1.09 each time. In [10], the equilibrium dissociation constant (Kd) (usually the concentration at which binding is half-saturated) turned out to be 0.271 nM. Further, the half-maximal effective concentration (EC50) worked out at 14.3 nM in [13]; 2.96 nM in [14]; 13.1 nM in [15]; 2.45 nM in assay [16]; 2.43 nM in assay [17].

B3: Bi-IgG 11867/10392 (bispecific antibody)
heavy chain 10392, knob: EVQLVESGGGLVQPGGSLRLSCAASGFNIYYSSIHWVRQAPGKGLEWVASISSSSGSTSYADSVKGRFTISADTSKNTAYLQMNSLRAEDTAVYYCARSYYGGGYPYALDYWGQGTLVTVSSASTKGPSVFPLAPSSKSTSGGTAALGCLVKDYFPEPVTVSWNSGALTSGVHTFPAVLQSSGLYSLSSVVTVPSSSLGTQTYICNVNHKPSNTKVDKKVEPKSCDKTHTCPPCPAPELLGGPSVFLFPPKPKDTLMISRTPEVTCVVVDVSHEDPEVKFNWYVDGVEVHNAKTKPREEQYNSTYRVVSVLTVLHQDWLNGKEYKCKVSNKALPAPIEKTISKAKGQPREPMVFDLPPSREEMTKNQVSLWCMVKGFYPSDIAVEWESNGQPENNYKTTPPVLDSDGSFFLYSKLTVDKSRWQQGNVFSCSVMHEALHNHYTQKSLSLSPGK
heavy chain 11867, hole: EVQLVESGGGLVQPGGSLRLSCAASGFDFDSYAIHWVRQAPGKGLEWVAYFYPGHDYSTYADSVKGRFTISADTSKNTAYLQMNSLRAEDTAVYYCARPSPYFSWHQAMDYWGQGTLVTVSSASTKGPSVFPLAPSSKSTSGGTAALGCLVKDYFPEPVTVSWNSGALTSGVHTFPAVLQSSGLYSLSSVVTVPSSSLGTQTYICNVNHKPSNTKVDKKVEPKSCDKTHTCPPCPAPELLGGPSVFLFPPKPKDTLMISRTPEVTCVVVDVSHEDPEVKFNWYVDGVEVHNAKTKPREEQYNSTYRVVSVLTVLHQDWLNGKEYKCKVSNKALPAPIEKTISKAKGQPREPQVYTLPPIRELMTSNQVSLSCAVKGFYPSDIAVEWESNGQPENNYKTTPPVLDSDGSFFLVSKLTVDKSRWQQGNVFSCSVMHEALHNHYTQKSLSLSPGK
light chain 11867: DIQMTQSPSSLSASVGDRVTITCRASQSVSSAVAWYQQKPGKAPKLLIYSASSLYSGVPSRFSGSRSGTDFTLTISSLQPEDFATYYCQQATGSEVTFGQGTKVEIKRTVAAPSVFIFPPSDEQLKSGTASVVCLLNNFYPREAKVQWKVDNALQSGNSQESVTEQDSKDSTYSLSSTLTLSKADYEKHKVYACEVTHQGLSSPVTKSFNRGEC
On to B3, for which the EC50 was 1.2 nM in assay [1]; 15.9 nM in [11]; 6.4 nM in assay [12]; 2.5 nM in assay [18]; 2.4 nM in assay [19]. The “IC50, inhibition” value in assay [2] is 2.5 nM; in assay [3], 6.1 nM; in assay [4], 7.5 nM; in assay [5] it was 4.1 nM; in assay [6], 3.2 nM.
